No end group written: not given here. *: point of attachment. Biotin = O=C1N[C@H]2[C@H](CS[C@H]2CCCCC(=O)*)N1
T1: Human PPARδ-LBD (amino acids 170–441), amino-terminal His-tagged (human, UniProt Q03181 170-441)
T1 construct: Form used in the FRET assays; also called hPPARδ-LBD; PPARβ; source: Rosetta (DE3) pLysS cells, pET28a, purified (TALON, HiTrap Q, Superdex 75); not shown: His tag, N-terminal, kept
T1 sequence (looked up): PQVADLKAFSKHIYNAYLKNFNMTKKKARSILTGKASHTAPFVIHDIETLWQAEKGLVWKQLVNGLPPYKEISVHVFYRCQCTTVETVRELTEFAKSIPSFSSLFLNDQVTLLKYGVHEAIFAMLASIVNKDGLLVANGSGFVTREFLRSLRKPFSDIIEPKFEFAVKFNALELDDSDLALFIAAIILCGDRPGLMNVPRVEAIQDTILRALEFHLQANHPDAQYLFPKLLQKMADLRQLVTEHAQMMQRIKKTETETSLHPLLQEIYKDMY

T2: Human PPARα-LBD (amino acids 200–468), amino-terminal His-tagged (human, UniProt Q07869 200-468)
T2 construct: Form used in the FRET assays; detected through the His tag with a Tb cryptate anti-6×His antibody; Routine preparations hold intrinsic fatty acids; also called hPPARα-LBD; NR1C1; source: Rosetta (DE3) pLysS cells, pET28a, purified (TALON, HiTrap Q, Superdex 75); not shown: His tag, N-terminal, kept
T2 sequence (looked up): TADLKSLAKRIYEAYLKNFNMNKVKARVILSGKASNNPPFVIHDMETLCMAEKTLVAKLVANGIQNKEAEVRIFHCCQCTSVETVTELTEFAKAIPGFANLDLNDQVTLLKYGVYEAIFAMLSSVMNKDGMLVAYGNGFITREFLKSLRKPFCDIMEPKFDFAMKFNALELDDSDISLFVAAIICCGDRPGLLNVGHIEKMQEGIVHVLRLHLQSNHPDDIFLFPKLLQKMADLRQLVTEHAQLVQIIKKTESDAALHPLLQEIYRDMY

T3: Human PPARγ-LBD (amino acids 203–477 in isoform 1), amino-terminal His-tagged (human, UniProt P37231-2 203-477)
T3 construct: numbers count on: isoform 1; Form used in the FRET assays; mainly prepared as apo (unliganded) form; also called hPPARγ-LBD; NR1C3; source: Rosetta (DE3) pLysS cells, pET28a, purified (TALON, HiTrap Q, Superdex 75); not shown: His tag, N-terminal, kept
T3 sequence (looked up): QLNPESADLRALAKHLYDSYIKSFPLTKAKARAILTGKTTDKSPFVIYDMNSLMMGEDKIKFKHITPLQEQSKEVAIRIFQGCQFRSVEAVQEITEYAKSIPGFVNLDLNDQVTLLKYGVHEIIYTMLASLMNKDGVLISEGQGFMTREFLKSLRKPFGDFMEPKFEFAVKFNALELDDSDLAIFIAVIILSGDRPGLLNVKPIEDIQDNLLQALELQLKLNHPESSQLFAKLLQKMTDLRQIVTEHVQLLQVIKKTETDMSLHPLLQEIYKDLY


What was measured:
Conditions in all cases: both partners purified
[1] = biological target: T1, Human PPARδ-LBD (amino acids 170–441), …; assay: FRET or BRET; single-emission TR-FRET as a1, with the agonist titrated (pemafibrate for PPARα-LBD, seladelpar for PPARδ-LBD, pioglitazone for PPARγ-LBD); signal ratios normalised to 1% DMSO
[2] = biological target: T2, Human PPARα-LBD (amino acids 200–468), …; assay: as above
[3] = biological target: T3, Human PPARγ-LBD (amino acids 203–477 in …); assay: as above
[4] = biological target: T1, Human PPARδ-LBD (amino acids 170–441), …; assay: FRET or BRET; dual-emission TR-FRET: a FITC-coactivator peptide and a ULight-coactivator peptide together in one well with the His-tagged LBD and Tb anti-6×His antibody; agonist titrated (pemafibrate, seladelpar or pioglitazone); buffer A, room temperature
[5] = biological target: T2, Human PPARα-LBD (amino acids 200–468), …; assay: as above
[6] = biological target: T3, Human PPARγ-LBD (amino acids 203–477 in …); assay: as above
[7] = biological target: T1, Human PPARδ-LBD (amino acids 170–441), …; assay: FRET or BRET; dual-emission TR-FRET: ULight-corepressor peptide and FITC-coactivator peptide together in one well with the His-tagged LBD and Tb anti-6×His antibody; agonist titrated from vehicle (pemafibrate, seladelpar or pioglitazone); buffer A, room temperature
[8] = biological target: T2, Human PPARα-LBD (amino acids 200–468), …; assay: FRET or BRET; single-emission TR-FRET (LANCE Ultra); His-tagged LBD (9.5 µL of 400 nM) with Tb cryptate anti-6×His antibody, biotin peptide (5 µL of 1 µM) with ULight-Streptavidin or FITC-Ahx peptide; buffer A (20 mM HEPES pH 7.4, 150 mM NaCl, 1 mM EDTA, 1 mM DTT, 0.005% Tween 20, 0.1% fatty acid-free BSA); room temperature, 2 h; without agonist (vehicle 1% DMSO)
[9] = biological target: T3, Human PPARγ-LBD (amino acids 203–477 in …); assay: as above
[10] = biological target: T3, Human PPARγ-LBD (amino acids 203–477 in …); assay: FRET or BRET; dual-emission TR-FRET: ULight-corepressor peptide and FITC-coactivator peptide together in one well with the His-tagged LBD and Tb anti-6×His antibody; agonist titrated from vehicle (pemafibrate, seladelpar or pioglitazone); buffer A, room temperature

Row | Binder | EC50 of seladelpar (the ligand is titrated) for recruitment of the peptide [1] | EC50 of pemafibrate (the ligand is titrated) for recruitment of the peptide [2] | EC50 of pioglitazone (the ligand is titrated) for recruitment of the peptide [3] | maximal recruitment in dual-FRET with seladelpar, that of FITC-CBP in the same well taken as 100 [4] | maximal recruitment in dual-FRET with seladelpar, that of FITC-TRAP in the same well taken as 100 [4] | maximal recruitment in dual-FRET with pemafibrate, that of FITC-CBP in the same well taken as 100 [5] | maximal recruitment in dual-FRET with pemafibrate, that of FITC-TRAP in the same well taken as 100 [5] | maximal recruitment in dual-FRET with pioglitazone, that of FITC-CBP in the same well taken as 100 [6] | maximal recruitment in dual-FRET with pioglitazone, that of FITC-TRAP in the same well taken as 100 [6] | binding result [7] | binding result [8] | binding result [9] | binding result [10]
1 | Biotin-PVSSMAGNTKNHPMLMNLLKDNPAQ (thyroid hormone receptor-associated protein 220 (TRAP220), human, AAs 631–655, LXXLL motif LMNLL; also called ULight-TRAP220; ULight-TRAP; source: synthetic peptide (GenScript)) [TRAP220 coactivator peptide, biotin-labeled (AAs 631–655)] | 54.8 nM | 130 nM | 1910 nM | 402 FITC-CBP = 100 | 108 FITC-TRAP = 100 | 63.3 FITC-CBP = 100 | 75.8 FITC-TRAP = 100 | 107 FITC-CBP = 100 | 65.8 FITC-TRAP = 100 | – | – | – | –
2 | Biotin-SGNLVPDAASKHKQLSELLRGGSGS (also called ULight-CBP; source: synthetic peptide (GenScript)) [CBP coactivator peptide, biotin-labeled (AAs 56–80)] | 33.2 nM | 60.9 nM | 637 nM | 508 FITC-CBP = 100 | 372 FITC-TRAP = 100 | 431 FITC-CBP = 100 | 508 FITC-TRAP = 100 | 237 FITC-CBP = 100 | 295 FITC-TRAP = 100 | – | – | – | –
3 | Biotin-EAEEPSLLKKLLLAPANTQ (also called ULight-PGC1α; source: synthetic peptide (GenScript)) [PGC1α coactivator peptide, biotin-labeled (AAs 137–155)] | 48.1 nM | 82 nM | – | 359 FITC-CBP = 100 | 313 FITC-TRAP = 100 | 108 FITC-CBP = 100 | 150 FITC-TRAP = 100 | – | – | – | – | – | –

Continued, values first:

Row | EC50 of seladelpar (the ligand is titrated) for recruitment of the peptide [1] | EC50 of pemafibrate (the ligand is titrated) for recruitment of the peptide [2] | EC50 of pioglitazone (the ligand is titrated) for recruitment of the peptide [3] | maximal recruitment in dual-FRET with seladelpar, that of FITC-CBP in the same well taken as 100 [4] | maximal recruitment in dual-FRET with seladelpar, that of FITC-TRAP in the same well taken as 100 [4] | maximal recruitment in dual-FRET with pemafibrate, that of FITC-CBP in the same well taken as 100 [5] | maximal recruitment in dual-FRET with pemafibrate, that of FITC-TRAP in the same well taken as 100 [5] | maximal recruitment in dual-FRET with pioglitazone, that of FITC-CBP in the same well taken as 100 [6] | maximal recruitment in dual-FRET with pioglitazone, that of FITC-TRAP in the same well taken as 100 [6] | binding result [7] | binding result [8] | binding result [9] | binding result [10] | Binder
4 | 53.5 nM | 87.8 nM | 2110 nM | 156 FITC-CBP = 100 | 55.5 FITC-TRAP = 100 | 115 FITC-CBP = 100 | 77 FITC-TRAP = 100 | 52 FITC-CBP = 100 | 57.1 FITC-TRAP = 100 | – | – | – | – | Biotin-CPSSHSSLTERHKILHRLLQEGSPS (also called ULight-SRC1; SRC-1 M2; source: synthetic peptide (GenScript)) [SRC1 coactivator peptide, biotin-labeled (AAs 676–700)]
5 | – | – | – | – | – | – | – | – | – | binds | binds | binds | – | Biotin-EHASTNMGLEAIIRKALMGKY (NCoR2 (nuclear receptor corepressor 2, SMRT), human, AAs 2321–2341, LXXXIXXXL motif LEAIIRKAL; also called ULight-NCoR2; SMRT; source: synthetic peptide (GenScript)) [NCoR2 corepressor peptide, biotin-labeled (AAs 2321–2341)]
6 | – | – | – | – | – | – | – | – | – | binds | binds | – | binds | Biotin-ADPASNLGLEDIIRKALMGSF (NCoR1 (nuclear receptor corepressor 1), human, AAs 2255–2275, LXXXIXXXL motif LEDIIRKAL; also called ULight-NCoR1; N-CoR ID2; source: synthetic peptide (GenScript)) [NCoR1 corepressor peptide, biotin-labeled (AAs 2255–2275)]

— publication PMC12024163, “Competitive Ligand-Induced Recruitment of Coactivators to Specific PPARα/δ/γ Ligand-Binding Domains Revealed by Dual-Emission FRET and X-Ray Diffraction of Cocrystals” (Antioxidants, 2025)
